Laboratory results taken from patent US20240360203A1.
Read-outs that look alike come from different tables or passages of the source.

What was measured:
Assay in all cases: cell-based or functional assay
[1] = target: SARS-CoV-2 BA.4/5 Spike on pseudovirus (SARS-CoV-2) (UniProt P0DTC2)
[2] = target: SARS-CoV-2 BA.2.12.1 Spike on pseudovirus (SARS-CoV-2) (UniProt P0DTC2)
[3] = target: SARS-CoV-2 BA.1 Spike on pseudovirus (SARS-CoV-2) (UniProt P0DTC2)
[4] = target: SARS-CoV-2 BA.4/5 Spike on pseudovirus (SARS-CoV-2) (UniProt P0DTC2); remark: listed apart in the source
[5] = target: SARS-CoV-2 Delta Spike on pseudovirus (SARS-CoV-2) (UniProt P0DTC2)
[6] = target: SARS-CoV-2 BA.2 Spike on pseudovirus (SARS-CoV-2) (UniProt P0DTC2)
[7] = target: SARS-CoV-2 BA.2.12.1 Spike on pseudovirus (SARS-CoV-2) (UniProt P0DTC2); remark: listed apart in the source
[8] = target: SARS-CoV-2 BA.1 Spike on pseudovirus (SARS-CoV-2) (UniProt P0DTC2); remark: listed apart in the source
[9] = target: SARS-CoV-2 BA.4/5 Spike on pseudovirus (SARS-CoV-2) (UniProt P0DTC2); remark: listed apart in the source
[10] = target: SARS-CoV-2 Delta Spike on pseudovirus (SARS-CoV-2) (UniProt P0DTC2); remark: listed apart in the source
[11] = target: SARS-CoV-2 BA.2 Spike on pseudovirus (SARS-CoV-2) (UniProt P0DTC2); remark: listed apart in the source
[12] = target: SARS-CoV-2 BA.2 spike protein (SARS-CoV-2)
[13] = target: SARS-CoV-2 XBB.1.5 spike protein (SARS-CoV-2)
[14] = target: SARS-CoV-2 Delta (B.1.617.2) spike protein (SARS-CoV-2)
[15] = target: SARS-CoV-2 BQ.1.1 spike protein (SARS-CoV-2)
[16] = target: SARS-CoV-2 XBB.1.5 spike protein (SARS-CoV-2); remark: listed apart in the source
[17] = target: SARS-CoV-2 Delta (B.1.617.2) spike protein (SARS-CoV-2); remark: listed apart in the source
[18] = target: SARS-CoV-2 BQ.1.1 spike protein (SARS-CoV-2); remark: listed apart in the source
[19] = target: SARS-CoV-2 XBB.1.5 spike protein (SARS-CoV-2); remark: listed apart in the source
[20] = target: SARS-CoV-2 Delta (B.1.617.2) spike protein (SARS-CoV-2); remark: listed apart in the source
[21] = target: SARS-CoV-2 BQ.1.1 spike protein (SARS-CoV-2); remark: listed apart in the source
[22] = target: SARS-CoV-2 XBB.1.5 spike protein (SARS-CoV-2); remark: listed apart in the source
[23] = target: SARS-CoV-2 Delta (B.1.617.2) spike protein (SARS-CoV-2); remark: listed apart in the source
[24] = target: SARS-CoV-2 BQ.1.1 spike protein (SARS-CoV-2); remark: listed apart in the source

“Sotrovimab VH/VL (human IgG1 molecule expressing the same variable regions of Sotrovimab) (antibody)” gave an IC50, pseudovirus neutralization [1] of 0.424 µg/mL, an IC50, pseudovirus neutralization [2] of 0.714 µg/mL and an IC50, pseudovirus neutralization [3] of 0.0633 µg/mL. It also gave an IC50, pseudovirus neutralization [4] of 0.666 µg/mL, an IC50, pseudovirus neutralization [5] of 0.0123 µg/mL and an IC50, pseudovirus neutralization [6] of 0.393 µg/mL. The % neutralization at 4.5 µg/ml, pseudovirus [7] was 76.9%, the IC50, pseudovirus neutralization [7] was 1.2 µg/mL and the % neutralization at 4.5 µg/ml, pseudovirus [8] was 99.4%. It also gave a % neutralization at 4.5 µg/ml, pseudovirus [9] of 60.5%, an IC50, pseudovirus neutralization [9] of over 4.5 µg/mL and a % neutralization at 4.5 µg/ml, pseudovirus [10] of 101%. It also gave an IC50, pseudovirus neutralization [10] of 0.065 µg/mL, a % neutralization at 4.5 µg/ml, pseudovirus [11] of 73.1% and an IC50, pseudovirus neutralization [11] of 0.704 µg/mL.
Substance Sotrovimab VH/VL-hamIgG2a (antibody) has a pseudovirus neutralization EC50, Vero E6 [12] of 0.361 µg/mL.
For Sotrovimab VH/VL-huIgG1 (antibody), the pseudovirus neutralization EC50, Vero E6 [12] was 0.862 µg/mL.
Work on Sotrovimab VH/VL-huIgG1-LS (antibody) yielded a pseudovirus neutralization EC50, Vero E6 (sotrovimab VH/VL-huIgG1-LS + isotype) [13] of 0.17 µg/mL, a pseudovirus neutralization EC50, Vero E6 (sotrovimab VH/VL-huIgG1-LS + isotype) [14] of 0.0079 µg/mL and a pseudovirus neutralization EC50, Vero E6 (sotrovimab VH/VL-huIgG1-LS + isotype) [15] of 1.2 µg/mL. It also gave a pseudovirus neutralization Emax, Vero E6 (sotrovimab VH/VL-huIgG1-LS + isotype) (% neutralization) [16] of 93.4, a pseudovirus neutralization Emax, Vero E6 (sotrovimab VH/VL-huIgG1-LS + isotype) (% neutralization) [17] of 96.9 and a pseudovirus neutralization Emax, Vero E6 (sotrovimab VH/VL-huIgG1-LS + isotype) (% neutralization) [18] of 71.9. For the same substance, the pseudovirus neutralization EC50, Vero E6 [12] was 0.851 µg/mL, the pseudovirus neutralization EC90, Vero E6 (sotrovimab VH/VL-huIgG1-LS + isotype) [19] was 1.5 µg/mL and the pseudovirus neutralization EC90, Vero E6 (sotrovimab VH/VL-huIgG1-LS + isotype) [20] was 0.11 µg/mL. It also gave a pseudovirus neutralization EC90, Vero E6 (sotrovimab VH/VL-huIgG1-LS + isotype) [21] of 9.6 µg/mL, a pseudovirus neutralization EC80, Vero E6 (sotrovimab VH/VL-huIgG1-LS + isotype) [22] of 0.68 µg/mL and a pseudovirus neutralization EC80, Vero E6 (sotrovimab VH/VL-huIgG1-LS + isotype) [23] of 0.042 µg/mL. The pseudovirus neutralization EC80, Vero E6 (sotrovimab VH/VL-huIgG1-LS + isotype) [24] was 4.4 µg/mL.
